Consider six molecules from patent publication US20230127946A1 (SUZHOU PRO HEAL PHARMACEUTICALS TECHNOLOGY, published 2023).

One test has as its target T1, Human IGF-1R protein (human, UniProt P08069 31-932).
T1 construct: Bought protein; also called human IGF-1R (ARCO, No. IGR-H5229)
The experiment in a line: BLI (Octet RED96), antibody captured on AHC biosensor, IGF-1R in solution, 1:1 model. From the text:
After 14 days of culture, the culture supernatant was collected by centrifugation, and purify the antibodies with affinity purification column. Octet RED96 protein interaction workstation was used to detect the affinity of the above purified antibodies with human IGF-1R (Human IGF-1R, ARCO, No. IGR-H5229) separately. Biosensor AHC (18-5060) was used to capture the samples, and then the captured samples were compared with human IGF-1R. The dynamics of binding and dissociation of […] were detected. Dynamics uses 1:1 combined model for fitting analysis. The brief action steps are: protein loading for 200 s, binding for 180 s, dissociation for 300 s, regeneration for 30 s.

In a further test the target is IGF-1R on MCF-7 cells (UniProt P08069 31-1367, limits assumed). The experiment in a line: cell-based or functional assay.
IGF-1R on MCF-7 cells, sequence (P08069 31-1367 limits assumed): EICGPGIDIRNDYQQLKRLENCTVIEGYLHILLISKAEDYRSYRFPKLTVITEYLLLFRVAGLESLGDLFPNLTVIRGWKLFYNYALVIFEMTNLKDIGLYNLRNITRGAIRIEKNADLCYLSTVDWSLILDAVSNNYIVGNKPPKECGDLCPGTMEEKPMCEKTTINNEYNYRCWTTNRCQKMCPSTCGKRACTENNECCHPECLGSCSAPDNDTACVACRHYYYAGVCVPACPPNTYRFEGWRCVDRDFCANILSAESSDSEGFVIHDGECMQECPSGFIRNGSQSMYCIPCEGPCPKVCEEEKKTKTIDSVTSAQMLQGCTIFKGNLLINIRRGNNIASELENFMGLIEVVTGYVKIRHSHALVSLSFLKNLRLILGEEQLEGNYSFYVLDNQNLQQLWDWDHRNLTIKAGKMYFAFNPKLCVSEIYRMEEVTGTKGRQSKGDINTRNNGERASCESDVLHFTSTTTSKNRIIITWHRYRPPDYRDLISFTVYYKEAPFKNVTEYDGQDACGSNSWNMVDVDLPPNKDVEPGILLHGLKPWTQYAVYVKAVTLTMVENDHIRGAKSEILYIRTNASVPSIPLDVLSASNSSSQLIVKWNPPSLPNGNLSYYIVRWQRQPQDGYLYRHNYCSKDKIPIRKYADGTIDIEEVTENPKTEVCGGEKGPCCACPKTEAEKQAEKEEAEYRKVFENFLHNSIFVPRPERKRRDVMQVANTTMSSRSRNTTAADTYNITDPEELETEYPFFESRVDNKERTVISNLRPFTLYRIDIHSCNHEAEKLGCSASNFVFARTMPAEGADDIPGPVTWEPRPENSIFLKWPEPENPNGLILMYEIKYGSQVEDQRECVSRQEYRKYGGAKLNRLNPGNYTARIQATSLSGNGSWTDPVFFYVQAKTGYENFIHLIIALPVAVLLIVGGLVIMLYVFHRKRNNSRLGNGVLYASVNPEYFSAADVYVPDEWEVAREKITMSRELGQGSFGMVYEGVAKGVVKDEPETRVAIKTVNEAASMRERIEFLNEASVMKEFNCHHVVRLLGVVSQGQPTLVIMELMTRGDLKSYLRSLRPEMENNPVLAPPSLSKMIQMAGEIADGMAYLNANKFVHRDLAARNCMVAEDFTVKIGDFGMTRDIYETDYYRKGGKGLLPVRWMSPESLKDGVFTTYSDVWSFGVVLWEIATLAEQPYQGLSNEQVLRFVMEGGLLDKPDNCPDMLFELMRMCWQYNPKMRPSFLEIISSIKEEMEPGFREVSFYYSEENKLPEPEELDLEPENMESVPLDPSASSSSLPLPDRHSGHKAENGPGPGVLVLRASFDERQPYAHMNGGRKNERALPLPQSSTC

T1 sequence (P08069 31-932 limits assumed): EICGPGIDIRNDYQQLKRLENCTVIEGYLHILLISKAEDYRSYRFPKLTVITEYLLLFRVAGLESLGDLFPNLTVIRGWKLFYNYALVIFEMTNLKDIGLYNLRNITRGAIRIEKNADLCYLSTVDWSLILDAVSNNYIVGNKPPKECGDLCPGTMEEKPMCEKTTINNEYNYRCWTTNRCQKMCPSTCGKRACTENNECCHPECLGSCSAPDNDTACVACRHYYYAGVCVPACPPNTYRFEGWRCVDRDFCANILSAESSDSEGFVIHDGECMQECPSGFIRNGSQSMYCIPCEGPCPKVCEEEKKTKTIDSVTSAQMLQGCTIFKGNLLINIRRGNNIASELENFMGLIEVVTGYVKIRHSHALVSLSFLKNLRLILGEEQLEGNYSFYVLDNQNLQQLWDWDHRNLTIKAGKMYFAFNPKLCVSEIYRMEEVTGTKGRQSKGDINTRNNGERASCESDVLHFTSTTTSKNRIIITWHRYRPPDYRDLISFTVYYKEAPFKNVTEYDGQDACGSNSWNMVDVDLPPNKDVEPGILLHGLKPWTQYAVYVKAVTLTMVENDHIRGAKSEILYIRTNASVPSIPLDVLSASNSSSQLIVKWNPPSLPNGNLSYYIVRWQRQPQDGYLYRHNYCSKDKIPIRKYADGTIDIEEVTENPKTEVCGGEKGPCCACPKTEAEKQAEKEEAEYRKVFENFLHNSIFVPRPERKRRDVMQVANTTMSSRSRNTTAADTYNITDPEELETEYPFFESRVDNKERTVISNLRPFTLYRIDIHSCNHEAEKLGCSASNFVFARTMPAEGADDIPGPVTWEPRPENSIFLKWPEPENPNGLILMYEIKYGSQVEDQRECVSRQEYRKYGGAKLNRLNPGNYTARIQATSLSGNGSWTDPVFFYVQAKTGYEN

B1: PHP1003-4 (antibody, human IgG1, kappa, L234A L235A, V domains shown)
VH: EVQLVQSGAEVKKPGSSVKVSCKASGGTFSSYAISWVRQAPGQGLEWMGGIIPIFGTANYAQKFQGRVTITADKSTSTAYMELSSLRSEDTAVYYCARAPLRFLEWSTQDHYYYYYMDVWGKGTTVTVSS
VL: SSELTQDPAVSVALGQTVRITCQGDSLRSYYATWYQQKPGQAPILVIYGENKRPSGIPDRFSGSSSGNTASLTITGAQAEDEADYYCKSRDGSGQHLVFGGGTKLTVLR
notes: Variable and constant regions are directly spliced
In the test with Human IGF-1R protein, B1 had a Kd of 5.91 nM, a dissociation rate constant (koff) of 0.00146 s⁻¹ and a kon of 247000 M⁻¹ s⁻¹. The “IC50 of inhibition of MCF-7 cell proliferation (CCK8, OD450)” value (“IC50 of inhibition … (CCK8, OD450)” for short) in the test with IGF-1R on MCF-7 cells stood at 4.05 µg/mL.

B2: PHP1003-2 (antibody, human IgG1, kappa, L234A L235A, V domains shown)
VH: EVQLVQSGGGLVKPGGSLRLSCAASGFTFSSFAMHWVRQAPGKGLEWISVIDTRGATYYADSVKGRFTISRDNAKNSLYLQMNSLRAEDTAVYYCARLGNFYYGMDVWGQGTTVTVSS
VL: EIVLTQSPGTLSVSPGERATLSCRASQSIGSSLHWYQQKPGQAPRLLIKYASQSLSGIPDRFSGSGSGTDFTLTISRLEPEDFAVYYCHQSSRLPHTFGQGTKVEIKR
notes: as for B1
In the test with Human IGF-1R protein, B2 yielded a Kd of 3.83 nM, a dissociation rate constant (koff) of 0.000874 s⁻¹ and a kon of 228000 M⁻¹ s⁻¹. In addition, the “IC50 of inhibition … (CCK8, OD450)” value in the test with IGF-1R on MCF-7 cells came out at 3.93 µg/mL.

B3: PHP1003-1 (antibody, human IgG1, kappa, L234A L235A, V domains shown)
VH: QVQLQESGPGLVKPSGTLSLTCAVSGGSISSSNWWSWVRQPPGKGLEWIGEIYHSGSTNYNPSLKSRVTISVDKSKNQFSLKLSSVTAADTAVYYCARWTGRTDAFDIWGQGTMVTVSS
VL: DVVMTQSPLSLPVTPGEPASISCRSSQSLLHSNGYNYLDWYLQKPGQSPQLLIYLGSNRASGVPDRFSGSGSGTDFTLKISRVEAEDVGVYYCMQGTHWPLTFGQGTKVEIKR
notes: Variable and constant regions are directly spliced; also called anti-IGF-1R antibody PHP1003-1
In the test with Human IGF-1R protein, B3 came in with a Kd of 1.27 nM, an off-rate (koff) of 0.000347 s⁻¹ and an association rate constant (kon) of 274000 M⁻¹ s⁻¹. For the same molecule, the “IC50 of inhibition … (CCK8, OD450)” value with IGF-1R on MCF-7 cells was 2.37 µg/mL.

B4: PHP1003-7 (antibody, human IgG1, kappa, L234A L235A, V domains shown)
VH: QVQLQESGPGLVKPSETLSLTCTVSGYSITGGYLWNWIRQPPGKGLEWIGYISYDGTNNYKPSLKDRVTISRDTSKNQFSLKLSSVTAADTAVYYCARYGRVFFDYWGQGTLVTVSS
VL: DIVMTQSPLSLPVTPGEPASISCRSSQSIVHSNGNTYLQWYLQKPGQSPQLLIYKVSNRLYGVPDRFSGSGSGTDFTLKISRVEAEDVGVYYCFQGSHVPWTFGQGTKVEIKR
notes: as for B1
In the test with Human IGF-1R protein, B4 gave a Kd of 8.98 nM, an off-rate (koff) of 0.000883 s⁻¹ and an on-rate (kon) of 98300 M⁻¹ s⁻¹. Further, the “IC50 of inhibition … (CCK8, OD450)” value in the test with IGF-1R on MCF-7 cells was determined as 2.14 µg/mL.

B5: PHP1003-5 (antibody, human IgG1, kappa, L234A L235A, V domains shown)
VH: EVQLLESGGGLVQPGGSLRLSCTASGFTFSSYAMNWVRQAPGKGLEWVSAISGSGGTTFYADSVKGRFTISRDNSRTTLYLQMNSLRAEDTAVYYCAKDLGWSDSYYYYYGMDVWGQGTTVTVSS
VL: DIQMTQFPSSLSASVGDRVTITCRASQGIRNDLGWYQQKPGKAPKRLIYAASRLHRGVPSRFSGSGSGTEFTLTISSLQPEDFATYYCLQHNSYPCSFGQGTKLEIKR
notes: as for B1
Take B5: in the test with Human IGF-1R protein, the affinity, expressed as Kd, was 0.701 nM; the koff is 0.000396 s⁻¹; the kon was 565000 M⁻¹ s⁻¹. Besides, the “IC50 of inhibition … (CCK8, OD450)” value in the test with IGF-1R on MCF-7 cells turned out to be 0.96 µg/mL.

B6: PHP1003-6 (antibody, human IgG1, kappa, L234A L235A, V domains shown)
VH: QVQLQESGGGVVQPGRSLRLSCSASGFTFSDYYMYWVRQAPGKGLEWVAYITNYGGSTYYPDTVKGRFTISRDNAKNTLFLQMDSLRPEDTGVYFCARQSNYDYDGWFAYWGQGTPVTVSS
VL: DIQLTQSPSSLSASVGDRVTITCKASQEVGTAVAWYQQKPGKAPKLLIYWASTRHTGVPSRFSGSGSGTDFTFTISSLQPEDIATYFCQQYSNYPLTFGQGTKVEIKR
notes: as for B1
In the case of B6, in the test with Human IGF-1R protein, the Kd amounted to 1.12 nM, the dissociation rate constant (koff) is 0.000472 s⁻¹ and the kon came to 422000 M⁻¹ s⁻¹. For the same molecule, in the test with IGF-1R on MCF-7 cells, the “IC50 of inhibition … (CCK8, OD450)” value is 3.81 µg/mL.
